Test results: publication PMC10015101

Tests used:
[1] = molecular target: Rf1 soluble spike ectodomain, stabilised (2P, GSAS linker, T4 fibritin trimerization motif) (bat sarbecovirus Rf1 | bacteriophage T4) (UniProt Q0QDZ0); experiment: SEC
[2] = molecular target: SARS-CoV-1 soluble spike ectodomain, stabilised (2P, GSAS linker, T4 fibritin trimerization motif) (SARS-CoV-1 | bacteriophage T4) (UniProt P59594); experiment: SEC

Row | Substance | stoichiometry N [1] | stoichiometry N [2]
1 | Rf1 soluble spike ectodomain, stabilised (2P, GSAS linker, T4 fibritin trimerization motif) (from UniProt Q0QDZ0 1-1176) (domain or fragment) | 3 | –
2 | SARS-CoV-1 soluble spike ectodomain, stabilised (2P, GSAS linker, T4 fibritin trimerization motif) (from UniProt P59594 14-1190) (domain or fragment) | – | 3
